In the supplement of paper PMC10567573:
± gives the standard deviation.

Test: protein stability index of a GFP-peptide fusion (GPS, HEK-293T) (PSI 1-6); higher = more stable
[1] = treatment: DMSO, c terminus: a fixed tail appended
[2] = treatment: MLN4924 1 uM, 8 h, c terminus: a fixed tail appended
[3] = treatment: DMSO, c terminus: native
[4] = treatment: MLN4924 1 uM, 8 h, c terminus: native
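Note: 24-mer peptide tiles fused after GFP, lentivirally expressed, FACS-sorted into six equal bins by GFP/DsRed ratio, decoded by Illumina sequencing, PSI is the read-weighted mean bin number.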

Sequence | protein stability index [1] | protein stability index [2] | protein stability index [3] | protein stability index [4]
MDGRWQCSCWAWFLLVLAVVAGDT [ADAMTSL2] | 2.62 ± 1 | 2.45 ± 0.52 |  | 
KNFFKKAAAALFGGKKDKARYIDT [PLK2] | 1.95 ± 0.33 | 2.4 ± 0.63 |  | 
FTLGTNAIIISTIVLDRALHIPMY [OR10K2] | 2.89 ± 0.82 | 2.87 ± 0.78 |  | 
LPSHPLELSEKNFQLNQDKMNFST [POMP] | 3.84 ± 0.29 | 3.78 ± 0.21 |  | 
KSSKYGEGHQAWIVGIVEKGNRTA [SEPHS2] | 2.56 ± 0.19 | 2.56 ± 0.42 |  | 
VAERKYTQEQARKEFQQVFIPECN [SMOC2] | 4.38 ± 0.19 | 4.41 ± 0.23 |  | 
QKFRNQFLSFSMYQSFVQFLQYYY [TMEM120A] | 2.42 ± 0.21 | 2.41 ± 0.17 |  | 
VHFSEAIEKFIREPSLKATMGLAG [ALG2] | 2.33 ± 0.27 | 2.43 ± 0.24 |  | 
VGGATLAQTTSEAAMEGATLDQTT [HDAC6] | 5.44 ± 0.11 | 5.39 ± 0.26 |  | 
NQQLRNELQLEQSRAANQEQRAND [CEP70] | 5.48 ± 0.11 | 5.42 ± 0.24 |  | 
VENKEKDSNMPHFQTLQAIVSHFQ [CEP70] | 2.89 ± 0.27 | 3.18 ± 0.36 |  | 
CRTYIIHYYLMDDTVEIREVHERN [EFHC1] | 2.55 ± 0.38 | 2.39 ± 0.29 |  | 
MWPPDPDPDPDPEPAGGSRPGPAV [CMTM3] | 5.02 ± 0.062 | 5.124 ± 0.016 |  | 
LSIQLQPKETQPFPKSEQVYLHFL [ZNF232] | 2.4 ± 0.25 | 2.52 ± 0.35 |  | 
AGGNSSSSAAMQSSCSSTSGGGGG [CCDC6] | 5.08 ± 0.11 | 5.035 ± 0.022 |  | 
CPAELRPQVPQPPSPAAVPRPPSN [TRAF3IP2] | 5.18 ± 0.13 | 5.01 ± 0.28 |  | 
MHYCAVPPRGPLGQGAMFRLPTDS [NEUROD6] | 2.97 ± 0.29 | 3.17 ± 0.38 |  | 
SWPRASPASGASSIKPEASQMPPP [SCNN1D] | 4.62 ± 0.27 | 4.63 ± 0.38 |  | 
DNLLAAADKYALERLKVMCEEALC [SPOPL] | 2.75 ± 0.32 | 2.78 ± 0.15 |  | 
NYMKILLKVGGILVMPIEDQLTQI [PCMTD1] | 3.08 ± 0.75 | 2.88 ± 0.8 |  | 
AEEYRLKEHYLTFEKSRYETYIHL [PSD2] | 1.93 ± 0.2 | 2.01 ± 0.46 |  | 
PQYTIRCRPLQFQPSKSHKKVLKK [ATE1] | 3.6 ± 0.09 | 3.88 ± 0.3 |  | 
HSEGRVEVYYDGQWGTVCDDDFSI [LOXL2] | 3.23 ± 0.33 | 3.56 ± 0.33 |  | 

Sequence | protein stability index [1] | protein stability index [2] | protein stability index [3] | protein stability index [4]
EEDSILIIPTPDEEEKILRVKLEE [ZNF24] | 5.03 ± 0.14 | 5 ± 0.31 |  | 
SFPATLETQEQDVDLVQKYLEKYY [MMP1] | 3.82 ± 0.12 | 4.09 ± 0.2 |  | 
ETYKMEFMYSGVENKQVVIIHHMR [INTS4] | 2.72 ± 0.56 | 2.46 ± 0.47 |  | 
IYVVGGYSWNNRCMVEIVQKYDPD [KLHL13] | 2.99 ± 1.6 | 2.91 ± 1.3 |  | 
NDIMAYMFGFFFGRTPLIKLSPKK [CDS2] | 2.03 ± 0.31 | 2.08 ± 0.22 |  | 
WFLVPISSVICNDITAYLFGFFFG [CDS1] | 2.75 ± 0.036 | 3.16 ± 1 |  | 
EPHSLLHLSRLCVRHNLGDTRLGQ [SPSB2] | 3.44 ± 0.18 | 3.35 ± 0.19 |  | 
DRAVNDYPSLYYPEMYILKGGYKE [CDC25B] | 2.67 ± 0.25 | 2.85 ± 0.46 |  | 
HRVKLTNSTLDPHGHLILHSMHKY [TBX6] | 2.37 ± 0.35 | 2.71 ± 0.2 |  | 
VRPGTPPDFILKVVIDKHPVRFFV [CTDNEP1] | 2.95 ± 0.49 | 2.92 ± 0.42 |  | 
ELSEAAEAQHGPHSAVARISRAQY [STX11] | 4.53 ± 0.24 | 4.63 ± 0.15 |  | 
PSLSTITSTSSSITSSIPDTERLD [DVL3] | 5.23 ± 0.17 | 5.28 ± 0.16 |  | 
KGRTIYLEDIYVMPEYRGQGIGSK [SAT2] | 2.44 ± 0.31 | 2.79 ± 0.12 |  | 
DLFVENMPGFPDNIRPSSSGGYWV [APMAP] | 2.32 ± 0.26 | 2.49 ± 0.34 |  | 
FPGPQEHTQVLPDVRLLPRRLPLA [DYRK1B] | 3.37 ± 0.083 | 3.58 ± 0.2 |  | 
GDASECPQATNAKDSGCSSPGAH [PPEF2] |  |  | 5.78 ± 0.1 | 5.57 ± 0.12
ADISEAEQRTIQAQKESLQNQHHS [APBB1IP] | 5.2 ± 0.38 | 5.23 ± 0.15 |  | 
ITHSTYSLPASSYSQDPVYANGGL [NOL4L] | 2.96 ± 0.32 | 3.18 ± 0.2 |  | 
VCYFTNWAQYRQGEARFLPKDLDP [CHIT1] | 2.32 ± 0.14 | 2.34 ± 0.17 |  | 
CFNRSREYQLNDSAAYYLNDLDRI [GNAI1] | 2.51 ± 0.25 | 2.46 ± 0.23 |  | 
EGHQAWIVGIVEKGNRTARIIDKP [SEPHS2] | 1.95 ± 0.24 | 2.42 ± 0.43 |  | 
PLPQIPNLPFWVKEKANSLKNEIQ [SPATS1] | 2.79 ± 0.45 | 3.4 ± 0.3 |  | 
ELEDKDGLQSAQPTEGQGSLLTNW [MYBL2] | 5.03 ± 0.36 | 5.35 ± 0.31 |  | 

Sequence | protein stability index [1] | protein stability index [2] | protein stability index [3] | protein stability index [4]
NQTALHLAAAHGHSEVVEELVSAD [RIPK4] | 5.46 ± 0.082 | 5.36 ± 0.11 |  | 
HESQQLATETQALAQRTQQDSTRT [TEKT4] | 5.41 ± 0.23 | 5.43 ± 0.074 |  | 
GLERRDWSPSPPATPEQGLSAFYL [SPDEF] | 3.03 ± 0.25 | 2.84 ± 0.15 |  | 
VLLQTSPYHVDSLLQLSDACRFQE [TCF25] | 2.22 ± 0.41 | 2.41 ± 0.56 |  | 
DRKLHSRPRKLYKHSSTSSRIAKG [BTBD10] | 3.81 ± 0.15 | 3.79 ± 0.25 |  | 
TGGLGGERERQPCGDGNTETHRAP [SOAT2] | 5.37 ± 0.15 | 5.31 ± 0.19 |  | 
KEYEKALKYVRGLLQTEPQNNQAK [FIS1] | 2.86 ± 0.14 | 3 ± 0.45 |  | 
WEPRRDMWVRFRAFEAARDLDACA [ZSWIM9] | 2.79 ± 0.34 | 2.72 ± 0.2 |  | 
MNKGDTEVMKCIVEVISDTLSKPS [CHGA] | 2.84 ± 0.3 | 2.86 ± 0.31 |  | 
YTYRDYGHSSSRDDYPSRGYSDRD [RBMX] | 3.94 ± 0.3 | 4.02 ± 0.26 |  | 
EEHGLQQERPRPEPGRLGSSSPAS [PXN] | 5.25 ± 0.43 | 5.1 ± 0.15 |  | 
NKRLAKYRMRNVHPKPKLVRVLES [CLCN6] | 3.1 ± 0.33 | 3 ± 0.29 |  | 
VYMFKNGSGDSGDSSEEESHRVVL [LYSMD4] | 3.49 ± 0.32 | 3.33 ± 0.38 |  | 
SSTQLCVLNDRFQRQKYLSLQQMQ [NANOGP8] | 2.65 ± 0.14 | 2.83 ± 0.1 |  | 
PDTQENRRMFSSLFQFSNCSQGQQ [CCDC3] | 3.67 ± 0.19 | 3.51 ± 0.17 |  | 
LTMTFPAGIVRVFSGTPPPPVLSF [FCHO1] | 2.92 ± 0.5 | 3.13 ± 0.54 |  | 
CYVGATVLRGRLYAIAGYDGNSLL [KLHL12] | 3.2 ± 0.34 | 2.57 ± 0.68 |  | 
RLDKHLYVIGGRNETGYLSSVECY [KLHL14] | 2.28 ± 0.17 | 2.14 ± 0.2 |  | 
YENCLQALADVEVKYIVERTMLDF [NLN] | 2.08 ± 0.28 | 2.22 ± 0.51 |  | 
YLNGASVLPHKSIGESVPEPRIIM [GMPPB] | 2.79 ± 0.35 | 2.84 ± 0.34 |  | 
LSLVLGNVNVTLLSKQAKFAYKDE [TMEM120A] | 2.59 ± 0.53 | 2.23 ± 0.28 |  | 
AVQRFCLIGSLSKHESEYNTTRV [NETO1] |  |  | 2.85 ± 1.1 | 2.48 ± 0.6
QDSSVTSKRNIKKGAVPRSIPNLA [HDAC6] | 4.17 ± 0.26 | 4.21 ± 0.41 |  | 

Sequence | protein stability index [1] | protein stability index [2] | protein stability index [3] | protein stability index [4]
EKEMKAQEQRLGIRISMSHEEEPL [GMPPB] | 5.23 ± 0.25 | 5.24 ± 0.086 |  | 
ERVYSLQHLDPQGAQELLEFTIRD [INTS4] | 3.74 ± 0.42 | 3.69 ± 0.31 |  | 
AGSFSRRLIKRFSFKSKPKANGNP [C2CD2L] | 3.19 ± 0.21 | 3.55 ± 0.15 |  | 
LQRLGELQSELAGVADFSATYLRC [INTS4] | 2.72 ± 0.22 | 2.93 ± 0.34 |  | 
QSMSQTRELLLDGGYLQRTTYDRR [RSPH3] | 3.85 ± 0.13 | 3.77 ± 0.052 |  | 
ERDALEAVFRFWAGGEKGPQAFPM [DNAAF3] | 2.5 ± 0.24 | 2.58 ± 0.28 |  | 
QFAAEYTSKNSSTQDPSQPNSTKN [LCOR] | 5.22 ± 0.15 | 5.36 ± 0.08 |  | 
KDGVTMAPAFRLSLKAKVSDNMSH [FSD1] | 3.56 ± 0.35 | 3.75 ± 0.26 |  | 
KDEPSKYNQQQALIDQRYFQVLCS [CEP70] | 3 ± 0.063 | 3.13 ± 0.24 |  | 
CLTAGPEVAAQLPAVRQLLPCARV [ZSWIM9] | 2.94 ± 0.21 | 2.97 ± 0.41 |  | 
LTISPKAARVGLLQYSTQVHTEFT [MATN2] |  | 2.436 ± 0.019 |  | 
SPPVMVAGGRVFVLPCIQQIQRIS [FLOT1] | 2.15 ± 0.5 | 1.96 ± 0.27 |  | 
YCKTSDGRVVPESQCQMETKPLAI [ADAMTSL2] | 3.94 ± 0.33 | 4.32 ± 0.11 |  | 
CFPSTQKPTEPSVPVQPLLPESLA [FBF1] | 4.14 ± 0.23 | 4.16 ± 0.15 |  | 
LAGLTRPDVRPPLGRGLVGGQEEA [SEPHS2] | 4.86 ± 0.094 | 4.92 ± 0.083 |  | 
MQVIAIVLYLMMPIVNISEVLGPL [PHTF1] | 3.08 ± 0.29 | 3.34 ± 0.38 |  | 
RSELVEGCGWRCPEHGDRVAELFC [TRIM14] | 2.86 ± 0.12 | 3.04 ± 0.36 |  | 
DRLVVTECQLTHSHPACPLEFAYY [ZSWIM9] | 2.53 ± 0.31 | 2.53 ± 0.32 |  | 
KELRKDYQGPGTRRLQEVLGVQTG [DYRK1B] | 4.07 ± 0.16 | 4.42 ± 0.17 |  | 
DIHVGLRGVPLLEWETEVEMDKLR [CLCN6] | 3.98 ± 0.23 | 3.96 ± 0.41 |  | 
